Values quoted from earlier work, collected in PMC3114466.
Where “and” joins values, the source holds several entries; their conditions need not be identical. Equal values may be shown once.

Test system: His
Conditions: free model compound in solution (inferred)

For “Capped histidine model compound (acetyl-histidine-methylamide) (synthetic)”, the pKa is given as 6.42 and 6.92 and 6.53.
